Data published in patent US20240124553A1.

Experiments:
Assay in all cases: flow cytometry, transfected 293T cells
[1] = target: CHIKV E2-E1 envelope glycoproteins (strain S27), E2 mutant A103S (chikungunya virus strain S27) (UniProt Q8JUX5)
[2] = target: CHIKV E2-E1 envelope glycoproteins (strain S27), E2 mutant A76S (chikungunya virus strain S27) (UniProt Q8JUX5)
[3] = target: CHIKV E2-E1 envelope glycoproteins (strain S27), E2 mutant A89S (chikungunya virus strain S27) (UniProt Q8JUX5)
[4] = target: CHIKV E2-E1 envelope glycoproteins (strain S27), E2 mutant C91A (chikungunya virus strain S27) (UniProt Q8JUX5)
[5] = target: CHIKV E2-E1 envelope glycoproteins (strain S27), E2 mutant D132A (chikungunya virus strain S27) (UniProt Q8JUX5)
[6] = target: CHIKV E2-E1 envelope glycoproteins (strain S27), E2 mutant E35A (chikungunya virus strain S27) (UniProt Q8JUX5)
[7] = target: CHIKV E2-E1 envelope glycoproteins (strain S27), E2 mutant G44A (chikungunya virus strain S27) (UniProt Q8JUX5)
[8] = target: CHIKV E2-E1 envelope glycoproteins (strain S27), E2 mutant G82A (chikungunya virus strain S27) (UniProt Q8JUX5)
[9] = target: CHIKV E2-E1 envelope glycoproteins (strain S27), E2 mutant G98A (chikungunya virus strain S27) (UniProt Q8JUX5)
[10] = target: CHIKV E2-E1 envelope glycoproteins (strain S27), E2 mutant I54A (chikungunya virus strain S27) (UniProt Q8JUX5)
[11] = target: CHIKV E2-E1 envelope glycoproteins (strain S27), E2 mutant I56A (chikungunya virus strain S27) (UniProt Q8JUX5)
[12] = target: CHIKV E2-E1 envelope glycoproteins (strain S27), E2 mutant I74A (chikungunya virus strain S27) (UniProt Q8JUX5)
[13] = target: CHIKV E2-E1 envelope glycoproteins (strain S27), E2 mutant I93A (chikungunya virus strain S27) (UniProt Q8JUX5)
[14] = target: CHIKV E2-E1 envelope glycoproteins (strain S27), E2 mutant K107A (chikungunya virus strain S27) (UniProt Q8JUX5)
[15] = target: CHIKV E2-E1 envelope glycoproteins (strain S27), E2 mutant K120A (chikungunya virus strain S27) (UniProt Q8JUX5)
[16] = target: CHIKV E2-E1 envelope glycoproteins (strain S27), E2 mutant L102A (chikungunya virus strain S27) (UniProt Q8JUX5)
[17] = target: CHIKV E2-E1 envelope glycoproteins (strain S27), E2 mutant L46A (chikungunya virus strain S27) (UniProt Q8JUX5)
[18] = target: CHIKV E2-E1 envelope glycoproteins (strain S27), E2 mutant M70A (chikungunya virus strain S27) (UniProt Q8JUX5)
[19] = target: CHIKV E2-E1 envelope glycoproteins (strain S27), E2 mutant M97A (chikungunya virus strain S27) (UniProt Q8JUX5)
[20] = target: CHIKV E2-E1 envelope glycoproteins (strain S27), E2 mutant N72A (chikungunya virus strain S27) (UniProt Q8JUX5)
[21] = target: CHIKV E2-E1 envelope glycoproteins (strain S27), E2 mutant P133A (chikungunya virus strain S27) (UniProt Q8JUX5)
[22] = target: CHIKV E2-E1 envelope glycoproteins (strain S27), E2 mutant P75A (chikungunya virus strain S27) (UniProt Q8JUX5)
[23] = target: CHIKV E2-E1 envelope glycoproteins (strain S27), E2 mutant Q49A (chikungunya virus strain S27) (UniProt Q8JUX5)
[24] = target: CHIKV E2-E1 envelope glycoproteins (strain S27), E2 mutant Q53A (chikungunya virus strain S27) (UniProt Q8JUX5)
[25] = target: CHIKV E2-E1 envelope glycoproteins (strain S27), E2 mutant R38A (chikungunya virus strain S27) (UniProt Q8JUX5)
[26] = target: CHIKV E2-E1 envelope glycoproteins (strain S27), E2 mutant S118A (chikungunya virus strain S27) (UniProt Q8JUX5)
[27] = target: CHIKV E2-E1 envelope glycoproteins (strain S27), E2 mutant S122A (chikungunya virus strain S27) (UniProt Q8JUX5)
[28] = target: CHIKV E2-E1 envelope glycoproteins (strain S27), E2 mutant S124A (chikungunya virus strain S27) (UniProt Q8JUX5)
[29] = target: CHIKV E2-E1 envelope glycoproteins (strain S27), E2 mutant T116A (chikungunya virus strain S27) (UniProt Q8JUX5)
[30] = target: CHIKV E2-E1 envelope glycoproteins (strain S27), E2 mutant T58A (chikungunya virus strain S27) (UniProt Q8JUX5)
[31] = target: CHIKV E2-E1 envelope glycoproteins (strain S27), E2 mutant V32A (chikungunya virus strain S27) (UniProt Q8JUX5)
[32] = target: CHIKV E2-E1 envelope glycoproteins (strain S27), E2 mutant V50A (chikungunya virus strain S27) (UniProt Q8JUX5)
[33] = target: CHIKV E2-E1 envelope glycoproteins (strain S27), E2 mutant Y69A (chikungunya virus strain S27) (UniProt Q8JUX5)

CHIKV mAb IM-CKV065 (antibody)
Binding Reactivity (% WT) [1]: 46.8 % WT | Binding Reactivity (% WT) [2]: 125 % WT | Binding Reactivity (% WT) [3]: 111 % WT | Binding Reactivity (% WT) [4]: -2 % WT | Binding Reactivity (% WT) [5]: 126 % WT | Binding Reactivity (% WT) [6]: 11.7 % WT | Binding Reactivity (% WT) [7]: 50.4 % WT | Binding Reactivity (% WT) [8]: 104 % WT | Binding Reactivity (% WT) [9]: 112 % WT | Binding Reactivity (% WT) [10]: 80.8 % WT | Binding Reactivity (% WT) [11]: 102 % WT | Binding Reactivity (% WT) [12]: 0.3 % WT | Binding Reactivity (% WT) [13]: -0.9 % WT | Binding Reactivity (% WT) [14]: 95.2 % WT | Binding Reactivity (% WT) [15]: 0.4 % WT | Binding Reactivity (% WT) [16]: 4.7 % WT | Binding Reactivity (% WT) [17]: -2.7 % WT | Binding Reactivity (% WT) [18]: 104 % WT | Binding Reactivity (% WT) [19]: 65.7 % WT | Binding Reactivity (% WT) [20]: 103 % WT | Binding Reactivity (% WT) [21]: 66.6 % WT | Binding Reactivity (% WT) [22]: 84.9 % WT | Binding Reactivity (% WT) [23]: 37.3 % WT | Binding Reactivity (% WT) [24]: 43.3 % WT | Binding Reactivity (% WT) [25]: 133 % WT | Binding Reactivity (% WT) [26]: 86 % WT | Binding Reactivity (% WT) [27]: 91.1 % WT | Binding Reactivity (% WT) [28]: 97.3 % WT | Binding Reactivity (% WT) [29]: 103 % WT | Binding Reactivity (% WT) [30]: 93.5 % WT | Binding Reactivity (% WT) [31]: 33.3 % WT | Binding Reactivity (% WT) [32]: 48.2 % WT | Binding Reactivity (% WT) [33]: 46.3 % WT

CHIKV mAb IM-CKV063 (antibody)
Binding Reactivity (% WT) [1]: 65.8 % WT | Binding Reactivity (% WT) [2]: 107 % WT | Binding Reactivity (% WT) [3]: 84 % WT | Binding Reactivity (% WT) [4]: 1.5 % WT | Binding Reactivity (% WT) [5]: 116 % WT | Binding Reactivity (% WT) [6]: 19.1 % WT | Binding Reactivity (% WT) [7]: 68.2 % WT | Binding Reactivity (% WT) [8]: 91.1 % WT | Binding Reactivity (% WT) [9]: 99.9 % WT | Binding Reactivity (% WT) [10]: 102 % WT | Binding Reactivity (% WT) [11]: 111 % WT | Binding Reactivity (% WT) [12]: 106 % WT | Binding Reactivity (% WT) [13]: 8.4 % WT | Binding Reactivity (% WT) [14]: 86.8 % WT | Binding Reactivity (% WT) [15]: 13.1 % WT | Binding Reactivity (% WT) [16]: 24.1 % WT | Binding Reactivity (% WT) [17]: 2.7 % WT | Binding Reactivity (% WT) [18]: 81.7 % WT | Binding Reactivity (% WT) [19]: 69.9 % WT | Binding Reactivity (% WT) [20]: 114 % WT | Binding Reactivity (% WT) [21]: 73.9 % WT | Binding Reactivity (% WT) [22]: 96.4 % WT | Binding Reactivity (% WT) [23]: 55.4 % WT | Binding Reactivity (% WT) [24]: 37.3 % WT | Binding Reactivity (% WT) [25]: 94.7 % WT | Binding Reactivity (% WT) [26]: 93.1 % WT | Binding Reactivity (% WT) [27]: 82.8 % WT | Binding Reactivity (% WT) [28]: 97.8 % WT | Binding Reactivity (% WT) [29]: 104 % WT | Binding Reactivity (% WT) [30]: 88.7 % WT | Binding Reactivity (% WT) [31]: 44.1 % WT | Binding Reactivity (% WT) [32]: 64.1 % WT | Binding Reactivity (% WT) [33]: 60.7 % WT
